Data taken from article PMC6459841, “Structural analyses of NudT16–ADP-ribose complexes direct rational design of mutants with improved processing of poly(ADP-ribosyl)ated proteins” (Scientific Reports, 2019).
Residue numbers refer to the chain shown, from its start. Numbers in names are those of the source.

B1: Homo sapiens NudT16 (HsNudT16) (enzyme, human)
chain: MAGARRLELGEALALGSGWRHVCHALLYAPDPGMLFGRIPLRYAILMQMRFDGRLGFPGGFVDTQDRSLEDGLNRELREELGEAAAAFRVERTDYRSSHVGSGPRVVAHFYAKRLTLEELLAVEAGATRAKDHGLEVLGLVRVPLYTLRDGVGGLPTFLENSFIGSAREQLLEALQDLGLLQSGSISGLKIPAHH
notes: carries A22V as in the Mammalian Gene Collection clone BC031215; subcloned in pNIC28-BSA4; Dimer in solution (SEC) and in the crystal; also called wild-type HsNudT16; native HsNudT16; source: E. coli CodonPlus RIPL, purified (Ni-NTA, TEV cleavage, anion exchange, SEC); not shown: His6, N-terminal, cleaved
B2: HsNudT16 H24W (enzyme, human)
chain: B1 chain with H24W
notes: also called H24W mutant; source: E. coli CodonPlus RIPL, purified (Ni-NTA, TEV cleavage, anion exchange, SEC); not shown: His6, N-terminal, cleaved
B3: HsNudT16 F61S (enzyme, human)
chain: B1 chain with F61S
notes: also called F61S mutant; source: E. coli CodonPlus RIPL, purified (Ni-NTA, TEV cleavage, anion exchange, SEC); not shown: His6, N-terminal, cleaved

Biological target: the molecule itself
Experiment: SEC; Superdex 75 10/300; 100 µL of each purified protein loaded at 0.3 mL/min, eluted over one column volume; Bio-Rad size standards; dimer to monomers

Protein | stoichiometry N
B1 | 2
B2 | 2
B3 | 2
